Assay results: publication PMC4316159

How the values were obtained:
[1] = biological target: biotinylated maltose-binding protein (MBP) [MBP: P0AEX9]; test: SPR
[2] = biological target: CD44 trans-membrane domain (TMD) fused to maltose-binding protein [MBP: P0AEX9]; test: single-molecule force spectroscopy

- Kd [1]: 0.101 µM
- koff [1]: 0.0387 s⁻¹
- kon [1]: 360000 M⁻¹ s⁻¹
- decrease of rupture force against YS1 [2]: 10 to 15 pN
- unstressed off-rate k0off (Bell model) [2]: 0.00076 s⁻¹
Substance: monobody YS1(E47A) (designed binder)
